We go through three molecules from PMC9490328, “Characterization and structure of the human lysine-2-oxoglutarate reductase domain, a novel therapeutic target for treatment of glutaric aciduria type 1” (Open Biology, 2022).

For data set [1], the target named is T1, 2-aminoadipic semialdehyde synthase (AASS), lysine-2-oxoglutarate reductase (LOR) domain (Homo sapiens, UniProt Q9UDR5).
T1 construct: recombinant LOR domain (amino acids 21-470)
T1 sequence (Q9UDR5 21-470): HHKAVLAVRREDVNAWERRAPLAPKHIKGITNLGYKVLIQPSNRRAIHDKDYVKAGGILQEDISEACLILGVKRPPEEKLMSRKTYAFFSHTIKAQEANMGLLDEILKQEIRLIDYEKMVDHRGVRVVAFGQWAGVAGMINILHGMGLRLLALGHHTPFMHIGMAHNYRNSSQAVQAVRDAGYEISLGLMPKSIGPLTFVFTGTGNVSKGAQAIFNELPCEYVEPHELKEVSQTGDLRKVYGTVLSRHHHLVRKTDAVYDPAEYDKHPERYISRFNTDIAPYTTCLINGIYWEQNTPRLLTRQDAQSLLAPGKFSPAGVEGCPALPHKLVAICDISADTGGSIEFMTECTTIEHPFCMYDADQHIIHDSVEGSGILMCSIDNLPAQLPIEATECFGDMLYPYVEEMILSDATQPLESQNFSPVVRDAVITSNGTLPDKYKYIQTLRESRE
The data set is described as follows: spectrophotometric LOR enzyme assay ([…] nm, NADPH consumption). The class given is biochemical.

The target of data set [2] is T2, 2-aminoadipic semialdehyde synthase (AASS), lysine-2-oxoglutarate reductase (LOR) domain (Homo sapiens, UniProt Q9UDR5).
T2 construct: LOR short construct (amino acids 21-451)
T2 sequence (Q9UDR5 21-451): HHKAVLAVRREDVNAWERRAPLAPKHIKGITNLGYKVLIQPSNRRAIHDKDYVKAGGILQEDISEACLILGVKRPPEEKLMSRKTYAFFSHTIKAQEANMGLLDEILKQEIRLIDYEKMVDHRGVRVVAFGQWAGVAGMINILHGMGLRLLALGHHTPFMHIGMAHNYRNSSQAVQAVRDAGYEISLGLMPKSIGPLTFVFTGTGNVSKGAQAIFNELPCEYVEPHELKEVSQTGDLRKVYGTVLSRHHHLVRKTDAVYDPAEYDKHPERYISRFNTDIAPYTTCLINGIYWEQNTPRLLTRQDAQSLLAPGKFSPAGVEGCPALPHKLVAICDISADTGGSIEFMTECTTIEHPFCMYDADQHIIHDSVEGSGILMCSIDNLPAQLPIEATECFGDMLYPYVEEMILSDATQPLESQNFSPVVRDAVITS
Put plainly: X-ray crystal structure of NEM-alkylated LOR; also activation in enzyme assay and immunoblot with anti-NEM antibody. In kind it is binding. (A western blot detects proteins with antibodies after separation by electrophoresis.)

Substrate in data set [3]: N[C@@H](CCCCN[C@@H](CCC(=O)O)C(=O)O)C(=O)O
Put plainly: steady-state kinetics, reverse reaction (Km); also inhibits the forward LOR reaction in AASS-Myc-DDK lysates. As to conditions: NADP+ consistent with its ability to compete with lysine and 2-oxoglutarate; pH 8.8. The class given is biochemical, Homo sapiens.

Substrate in data set [4]: NC(=O)c1ccc[n+]([C@@H]2O[C@H](COP(=O)(O)OP(=O)(O)OC[C@H]3O[C@@H](n4cnc5c(N)ncnc54)[C@H](OP(=O)(O)O)[C@@H]3O)[C@@H](O)[C@H]2O)c1
The data set is described as follows: purified protein. Conditions: pH 8.8; varied: cofactor.

Substrate in data set [5]: O=C(O)CCC(=O)C(=O)O
The data set is described as follows: purified protein. Conditions: NADPH; pH 8.8.

Substrate in data set [6]: NC(=O)C1=CN([C@@H]2O[C@H](COP(=O)(O)OP(=O)(O)OC[C@H]3O[C@@H](n4cnc5c(N)ncnc54)[C@H](OP(=O)(O)O)[C@@H]3O)[C@@H](O)[C@H]2O)C=CC1
Put plainly: purified protein. As to conditions: predicted: Ser […] and Arg […] interact with the additional phosphate of NADPH; pH 8.8; varied: cofactor.

Substrate in data set [7]: NCCCC[C@H](N)C(=O)O
The data set is described as follows: steady-state kinetics, forward reaction (Km). Conditions: NADPH; pH 8.8. In kind it is biochemical, Homo sapiens.

By IC50 is commonly meant the concentration at which inhibition is half-maximal. `NC[C@@H]1CCCN1C(=O)c1ccc2c(c1)CCC(=O)N2` [S-105] gave a 50% inhibitory concentration (IC50) in data set [1] of 142 µM.
With `CCN1C(=O)C=CC1=O` [NEM, N-ethylmaleimide], the “X-ray crystal structure of NEM-alkylated LOR; also activation in enzyme assay an” value in data set [2] was “crystal structure of NEM-alkylated LOR short construct (PDB 8E8V)”.

B1: 2-aminoadipic semialdehyde synthase (AASS), lysine-2-oxoglutarate reductase (LOR) domain (Homo sapiens) (protein)
chain: HHKAVLAVRREDVNAWERRAPLAPKHIKGITNLGYKVLIQPSNRRAIHDKDYVKAGGILQEDISEACLILGVKRPPEEKLMSRKTYAFFSHTIKAQEANMGLLDEILKQEIRLIDYEKMVDHRGVRVVAFGQWAGVAGMINILHGMGLRLLALGHHTPFMHIGMAHNYRNSSQAVQAVRDAGYEISLGLMPKSIGPLTFVFTGTGNVSKGAQAIFNELPCEYVEPHELKEVSQTGDLRKVYGTVLSRHHHLVRKTDAVYDPAEYDKHPERYISRFNTDIAPYTTCLINGIYWEQNTPRLLTRQDAQSLLAPGKFSPAGVEGCPALPHKLVAICDISADTGGSIEFMTECTTIEHPFCMYDADQHIIHDSVEGSGILMCSIDNLPAQLPIEATECFGDMLYPYVEEMILSDATQPLESQNFSPVVRDAVITSNGTLPDKYKYIQTLRESRE
notes: isolated LOR (amino acids 21-470)
Broadly, the Km is the concentration of substrate that gives half-maximal velocity. Usually Vmax stands for the top rate of the reaction or transport when substrate is in excess. Turning to B1, the Km was 1700 ± 100 µM in data set [3]; 420 ± 10 µM in “purified protein [4]”; 1400 ± 100 µM in “purified protein [5]”; 390 ± 20 µM in “purified protein [6]”; 24000 ± 2000 µM in data set [7]. The Vmax in data set [3] is 443 µmol/min/mg; in “purified protein [4]”, 525 µmol/min/mg; in the data set “purified protein [5]” it was 57.2 µmol/min/mg; in the data set “purified protein [6]”, 65.4 µmol/min/mg; in data set [7], 28.8 µmol/min/mg.
